Consider one molecule from patent US20040171158A1 (VECTORLOGICS, published 2004).

Experiment [1] concerns the target T1, Ad5 fiber-zipper protein with zipper peptide RR12EE345L at the carboxy terminus of the fiber (Ad5 (adenovirus serotype 5), UniProt P11818 1-581).
T1 construct: Transiently expressed in 293 cells, tested as cell lysate; also called Carboxy terminus of the fiber RR12EE345L; pVS-LL-RN
T1 sequence: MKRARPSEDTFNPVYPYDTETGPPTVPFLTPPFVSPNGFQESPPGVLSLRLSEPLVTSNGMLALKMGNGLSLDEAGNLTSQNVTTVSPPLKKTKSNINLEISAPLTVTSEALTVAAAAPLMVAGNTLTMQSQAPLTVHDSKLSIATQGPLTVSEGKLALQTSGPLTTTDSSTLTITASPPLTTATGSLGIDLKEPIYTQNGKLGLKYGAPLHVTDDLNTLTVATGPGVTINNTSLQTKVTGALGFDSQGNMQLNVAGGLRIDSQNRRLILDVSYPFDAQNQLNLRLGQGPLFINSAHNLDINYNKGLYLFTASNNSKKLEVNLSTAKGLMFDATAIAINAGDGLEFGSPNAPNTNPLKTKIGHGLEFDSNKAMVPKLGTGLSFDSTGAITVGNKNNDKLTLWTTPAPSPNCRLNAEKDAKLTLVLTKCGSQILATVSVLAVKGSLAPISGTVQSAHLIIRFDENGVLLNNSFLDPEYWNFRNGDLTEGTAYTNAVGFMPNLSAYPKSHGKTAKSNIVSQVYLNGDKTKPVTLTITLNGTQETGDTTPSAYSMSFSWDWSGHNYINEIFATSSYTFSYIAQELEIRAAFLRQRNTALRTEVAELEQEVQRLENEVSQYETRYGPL
Put plainly: co-precipitation of cell lysate with 6His-tagged sCAR on Ni-NTA matrix, detection with anti-fiber antibody.

The target of experiment [2] is T2, Ad5 fiber-zipper protein with zipper peptide EE12RR345L at the carboxy terminus of the fiber (Ad5 (adenovirus serotype 5), UniProt P11818 1-581).
T2 construct: Transiently expressed in 293 cells, tested as cell lysate; also called Carboxy terminus of the fiber EE12RR345L; pVS-LL-EN
The experiment is described as above.

B1: soluble form of the coxsackie virus and adenovirus receptor (CAR) with a carboxy terminal 6His tag (receptor)
chain: LSITTPEEMIEKAKGETAYLPCKFTLSPEDQGPLDIEWLISPADNQKVDQVIILYSGDKIYDDYYPDLKGRVHFTSNDLKSGDASINVTNLQLSDIGTYQCKVKKAPGVANKKIHLVVLVKPSGARCYVDGSEEIGSDFKIKCEPKEGSLPLQYEWQKLSDSQKMPTSWLAEMTSSVISVKNASSEYSGTYSCTVRNRVGSDQCLLRLNVVPPSNKAHHHHHH
notes: also called sCAR; native adenoviral receptor
With B1, the binding result in experiment [1] and in experiment [2] was “no binding” throughout.
